Source: patent publication US20260274976A1 (BIO THERA SOLUTIONS, published 2026)

Columns and labels:
[1] = biological target: T1, human OX40 on PG-Jurkat-hOX40-NF-κB cells (human, UniProt P43489 29-277); assay: cell-based or functional assay
T1 sequence (looked up): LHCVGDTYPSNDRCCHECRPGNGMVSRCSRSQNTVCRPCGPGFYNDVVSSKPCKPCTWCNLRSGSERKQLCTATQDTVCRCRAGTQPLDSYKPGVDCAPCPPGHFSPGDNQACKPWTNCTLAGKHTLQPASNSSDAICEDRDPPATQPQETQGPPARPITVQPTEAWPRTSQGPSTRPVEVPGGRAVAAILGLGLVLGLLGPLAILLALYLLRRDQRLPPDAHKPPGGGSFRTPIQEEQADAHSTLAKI

[2] = biological target: T1, human OX40 on PG-Jurkat-hOX40-NF-κB …; assay: flow cytometry competition against OX40L-mFc on PG-Jurkat-OX40-NF-κB cells; reference is antibody KHK4083
Protocol: PG-Jurkat-OX40-NF-κB cells were resuspended in 1×PBS to achieve a density of 1×10⁷ cells/mL. […] PG-Jurkat-OX40-NF-κB cells were plated in sample wells, control wells, and blank wells at 50 μL/well, and the cell count was 5×10⁵ cells/well at this point. Antibody diluents at different concentrations were added to sample wells at 50 μL/well, and the mixture was mixed well. 50 μL of 1×PBS was added to control wells and blank wells. The 96-well V-bottom plate was incubated in a refrigerator at 4° C. for 5 min. […] After the incubation was complete, the 96-well V-bottom plate was taken out. The diluted ligand solution was added to sample wells and control wells at 50 μL/well as soon as possible, and the mixture was mixed well by pipetting. […] The 96-well V-bottom plate was incubated in a refrigerator at 4° C. for 50 min. The plate was washed with 1×PBS, and the supernatant was removed for further incubation.
Anti-mFc APC (Bioss, Cat. No.: BJ01138707) was diluted with 1×PBS at a ratio of 1:800, and 100 μL of the diluted anti-mFc APC was added to each well except for blank wells to resuspend the cells. The plate was incubated in the dark in a refrigerator at 4° C. for 30 min. After the incubation, the cells were washed with 1×PBS and finally resuspended in 1×PBS at 200 μL/well for flow cytometry analysis.

B1: antibody M-KF (antibody, human IgG1, kappa, V domains shown)
VH: QVQLVESGGGVVQPGESLRLSCAASGFTFSSYGMHWVRQAPGKGLEWVAVIWEDGSNQYYADSVKGRFTISRDNSKNTLYLQMNSLRAEDTAVYYCAKDNQDTSPDVGIDYWGQGTLVTVSS
VL: DIQMTQSPSSLSASVGDRVTITCRASQNISPFLNWYQQKPGKAPKLLIYAAVGLQSGVPSRFSGSGSGTDFTLTISSLQPEDFATYYCQQYTDYPLTFGGGTKVEIKR
notes: also called anti-OX40 antibody
fold lower IC50 than antibody KHK4083 in blocking OX40L-mFc activation of OX40 signals (NF-κB luciferase reporter) [1]: 4.8 times | fold lower IC50 than antibody KHK4083 [2]: 2.8 times
